Positions count from the first letter of the chain named. Read-outs that look alike come from different tables or passages of the source.
How the values were obtained:
Experiment in all cases: EMSA
[1] = target: T1, Sen1 HD T1623V (Saccharomyces cerevisiae, UniProt Q00416 1095-1905, T1623V)
T1 sequence: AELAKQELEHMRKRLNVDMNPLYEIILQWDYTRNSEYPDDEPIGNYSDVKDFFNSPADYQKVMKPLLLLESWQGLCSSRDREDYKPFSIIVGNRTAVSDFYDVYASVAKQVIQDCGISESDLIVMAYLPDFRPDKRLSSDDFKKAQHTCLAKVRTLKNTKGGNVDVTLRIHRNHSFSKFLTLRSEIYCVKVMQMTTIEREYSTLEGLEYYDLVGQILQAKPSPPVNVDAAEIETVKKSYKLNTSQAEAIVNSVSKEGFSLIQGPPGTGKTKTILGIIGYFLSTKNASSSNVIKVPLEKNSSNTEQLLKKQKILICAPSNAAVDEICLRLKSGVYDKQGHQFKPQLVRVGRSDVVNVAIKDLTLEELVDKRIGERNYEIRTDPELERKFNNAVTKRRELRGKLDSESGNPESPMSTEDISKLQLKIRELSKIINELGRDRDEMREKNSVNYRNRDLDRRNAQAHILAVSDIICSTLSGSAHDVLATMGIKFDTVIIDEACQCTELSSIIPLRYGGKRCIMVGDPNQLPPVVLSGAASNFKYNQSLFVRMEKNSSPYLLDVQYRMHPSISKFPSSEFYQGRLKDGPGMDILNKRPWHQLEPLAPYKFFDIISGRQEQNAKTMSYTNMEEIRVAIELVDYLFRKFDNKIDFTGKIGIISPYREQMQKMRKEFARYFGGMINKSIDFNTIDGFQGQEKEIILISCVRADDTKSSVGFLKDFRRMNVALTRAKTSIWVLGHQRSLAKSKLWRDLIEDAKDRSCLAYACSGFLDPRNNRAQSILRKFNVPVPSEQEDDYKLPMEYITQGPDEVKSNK

[2] = target: T2, Sen1 HD wt (Saccharomyces cerevisiae, UniProt Q00416 1095-1905)
T2 sequence: T1 sequence with V529T

[3] = target: T1, Sen1 HD T1623V; remark: listed apart in the source
[4] = target: T3, Sen1 HD T1623E (Saccharomyces cerevisiae, UniProt Q00416 1095-1905, T1623E)
T3 sequence: T1 sequence with V529E

[5] = target: T2, Sen1 HD wt; remark: listed apart in the source

B1: DL3508 (called 40-mer RNA; printed sequence is 44 nt) (ssRNA)
RNA: UUCAUUUCAGACCAGCACCCACUCACUACAACUCACGACCAGGC
- Kd [1]: 8.1 nM
- Kd [2]: 6.4 nM
- Kd [3]: 12.7 nM
- Kd [4]: 100 nM
- Kd [5]: 13.1 nM

Source: publication PMC8860598
